Measured values reported in US20170037111A1, “Novel peptides and combination of peptides for use in immunotherapy against ovarian cancer and other cancers” (immatics biotechnologies GmbH, priority 2015, published 2017).

Biological target: HLA-A*02:01 (Homo sapiens, UniProt P04439, D140Y/D185E/D98H/E176V/E277Q/G131W/G231S/I119V/I121R/I166T/I218V/L300P/L318F/N151K/N90K/P208A/P217A/Q86G/Q94H/R138H/R169H/T345S)
Experiment: MHC binding assay (UV-ligand exchange, β2m ELISA, peptide exchange yield)
Details: MHC class I binding score; binding to HLA-A*02:01 ranged by peptide exchange yield (UV-ligand exchange, β2m ELISA)
Outline: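 Binding is expressed as peptide exchange yield: stabilized MHC complexes were quantified by β2m ELISA, with a 450 nm TMB read-out on streptavidin-coated plates. Complexes came from UV-ligand exchange, where UV irradiation cleaves a photolabile peptide so the candidate peptide can load.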

Row | Substance | Peptide exchange
1 | 34 (ILVEADSLWVV; listed as Homo sapiens) [compound 34] | ″+++″ (≧50% = +++)
2 | 23 (VLLDDIFAQL; listed as Homo sapiens) [compound 23] | ″+++″ (≧50% = +++)
3 | 578 (FLDPGGPMMKL; listed as Homo sapiens) [compound 578] | ″+++″ (≧50% = +++)
4 | 556 (FLTDLEDLTL; listed as Homo sapiens) [compound 556] | ″+++″ (≧50% = +++)
5 | 188 (GLFPVTPEAV; listed as Homo sapiens) [compound 188] | ″+++″ (≧50% = +++)
6 | 514 (ILVDWLVQV; listed as Homo sapiens) [compound 514] | ″+++″ (≧50% = +++)
7 | 74 (ALLDPEVLSIFV; listed as Homo sapiens) [compound 74] | ″+++″ (≧50% = +++)
8 | 471 (YLYNNMIAKI; listed as Homo sapiens) [compound 471] | ″+++″ (≧50% = +++)
9 | 148 (ALNPEIVSV; listed as Homo sapiens) [compound 148] | ″++″ (≧20% = ++)
10 | 25 (FLPDEPYIKV; listed as Homo sapiens) [compound 25] | ″+++″ (≧50% = +++)
11 | 258 (ELAERVPAI; listed as Homo sapiens) [compound 258] | ″++″ (≧20% = ++)
12 | 4 (GIMEHITKI; listed as Homo sapiens) [compound 4] | ″++++″ (≧75% = ++++)
13 | 495 (FIFSEKPVFV; listed as Homo sapiens) [compound 495] | ″+++″ (≧50% = +++)
14 | 342 (HIYDKVMTV; listed as Homo sapiens) [compound 342] | ″+++″ (≧50% = +++)
15 | 481 (GLIEDYEALL; listed as Homo sapiens) [compound 481] | ″+++″ (≧50% = +++)
16 | 433 (AMLNEPWAV; listed as Homo sapiens) [compound 433] | ″+++″ (≧50% = +++)
17 | 110 (FLSQVDFEL; listed as Homo sapiens) [compound 110] | ″+++″ (≧50% = +++)
18 | 497 (GLLEKLTAI; listed as Homo sapiens) [compound 497] | ″+++″ (≧50% = +++)
19 | 279 (ALWGGTQPLL; listed as Homo sapiens) [compound 279] | ″++″ (≧20% = ++)
20 | 251 (ALYTGFSILV; listed as Homo sapiens) [compound 251] | ″++″ (≧20% = ++)
21 | 225 (SLLKVLPAL; listed as Homo sapiens) [compound 225] | ″+++″ (≧50% = +++)
22 | 52 (FLLAHGLGFLL; listed as Homo sapiens) [compound 52] | ″++++″ (≧75% = ++++)
23 | 262 (LLWGDLIWL; listed as Homo sapiens) [compound 262] | ″+++″ (≧50% = +++)
24 | 202 (ALLDQQGSRWTL; listed as Homo sapiens) [compound 202] | ″+++″ (≧50% = +++)

Row | Substance | Peptide exchange
25 | 612 (YLYNEGLSV; listed as Homo sapiens) [compound 612] | ″+++″ (≧50% = +++)
26 | 336 (ILLTAIVQV; listed as Homo sapiens) [compound 336] | ″+++″ (≧50% = +++)
27 | 226 (MLYVVPIYL; listed as Homo sapiens) [compound 226] | ″++″ (≧20% = ++)
28 | 466 (VLIANLEKL; listed as Homo sapiens) [compound 466] | ″++++″ (≧75% = ++++)
29 | 362 (TLYGLSVLL; listed as Homo sapiens) [compound 362] | ″+++″ (≧50% = +++)
30 | 10 (FLATFPLAAV; listed as Homo sapiens) [compound 10] | ″++++″ (≧75% = ++++)
31 | 182 (MLLEAPGIFL; listed as Homo sapiens) [compound 182] | ″+++″ (≧50% = +++)
32 | 504 (GLSDGNPSL; listed as Homo sapiens) [compound 504] | ″++″ (≧20% = ++)
33 | 142 (FLFATPVFI; listed as Homo sapiens) [compound 142] | ″+++″ (≧50% = +++)
34 | 43 (VLSSLEINI; listed as Homo sapiens) [compound 43] | ″++″ (≧20% = ++)
35 | 287 (FLNEFFLNV; listed as Homo sapiens) [compound 287] | ″+++″ (≧50% = +++)
36 | 478 (YLLHEKLNL; listed as Homo sapiens) [compound 478] | ″+++″ (≧50% = +++)
37 | 126 (VLAYFLPEA; listed as Homo sapiens) [compound 126] | ″++++″ (≧75% = ++++)
38 | 174 (ALAQYLITA; listed as Homo sapiens) [compound 174] | ″+++″ (≧50% = +++)
39 | 545 (LLADLLHNV; listed as Homo sapiens) [compound 545] | ″+++″ (≧50% = +++)
40 | 286 (YLFPGIPEL; listed as Homo sapiens) [compound 286] | ″+++″ (≧50% = +++)
41 | 472 (KLLEVSDDPQV; listed as Homo sapiens) [compound 472] | ″+++″ (≧50% = +++)
42 | 550 (FLYDEIEAEVNL; listed as Homo sapiens) [compound 550] | ″+++″ (≧50% = +++)
43 | 311 (RLYTGMHTV; listed as Homo sapiens) [compound 311] | ″+++″ (≧50% = +++)
44 | 307 (ALPVSLPQI; listed as Homo sapiens) [compound 307] | ″+++″ (≧50% = +++)
45 | 440 (ALADGVTMQV; listed as Homo sapiens) [compound 440] | ″++″ (≧20% = ++)
46 | 346 (LLDSKVPSV; listed as Homo sapiens) [compound 346] | ″+++″ (≧50% = +++)
47 | 448 (NLLETKLQL; listed as Homo sapiens) [compound 448] | ″+++″ (≧50% = +++)

Results, then the substance that gave them:

Row | Peptide exchange | Substance
48 | ″++″ (≧20% = ++) | 510 (KLYSVVSQL; listed as Homo sapiens) [compound 510]
49 | ″+++″ (≧50% = +++) | 571 (LLLTTIPQI; listed as Homo sapiens) [compound 571]
50 | ″+++″ (≧50% = +++) | 249 (LLDGFLVNV; listed as Homo sapiens) [compound 249]
51 | ″+++″ (≧50% = +++) | 12 (SLWPDPMEV; listed as Homo sapiens) [compound 12]
52 | ″+++″ (≧50% = +++) | 572 (ALADLIEKELSV; listed as Homo sapiens) [compound 572]
53 | ″+++″ (≧50% = +++) | 122 (FLLAEDDIYL; listed as Homo sapiens) [compound 122]
54 | ″+++″ (≧50% = +++) | 306 (ALVNVQIPL; listed as Homo sapiens) [compound 306]
55 | ″+++″ (≧50% = +++) | 54 (SLLEQGKEPWMV; listed as Homo sapiens) [compound 54]
56 | ″+++″ (≧50% = +++) | 266 (KITDTLIHL; listed as Homo sapiens) [compound 266]
57 | ″+++″ (≧50% = +++) | 367 (SLQNHNHQL; listed as Homo sapiens) [compound 367]
58 | ″++″ (≧20% = ++) | 398 (KLLEEDGTIITL; listed as Homo sapiens) [compound 398]
59 | ″++++″ (≧75% = ++++) | 321 (GLFEDVTQPGILL; listed as Homo sapiens) [compound 321]
60 | ″+++″ (≧50% = +++) | 76 (ILIDSIYKV; listed as Homo sapiens) [compound 76]
61 | ″++++″ (≧75% = ++++) | 349 (SLTEYLQNV; listed as Homo sapiens) [compound 349]
62 | ″++″ (≧20% = ++) | 21 (VLDELDMEL; listed as Homo sapiens) [compound 21]
63 | ″++″ (≧20% = ++) | 458 (SLIDKLYNI; listed as Homo sapiens) [compound 458]

Row | Peptide exchange | Substance
64 | ″+++″ (≧50% = +++) | 206 (VLQEGKLQKLAQL; listed as Homo sapiens) [compound 206]
65 | ″+++″ (≧50% = +++) | 57 (TLAELQPPVQL; listed as Homo sapiens) [compound 57]
66 | ″++″ (≧20% = ++) | 372 (TMLLNIPLV; listed as Homo sapiens) [compound 372]
67 | ″++++″ (≧75% = ++++) | 62 (VLLDVSAGQLLM; listed as Homo sapiens) [compound 62]
68 | ″+++″ (≧50% = +++) | 587 (VMNDRLYAI; listed as Homo sapiens) [compound 587]
69 | ″+++″ (≧50% = +++) | 173 (LLDSASAGLYL; listed as Homo sapiens) [compound 173]
70 | ″+++″ (≧50% = +++) | 597 (KLLEGQVIQL; listed as Homo sapiens) [compound 597]
71 | ″+++″ (≧50% = +++) | 604 (SILDRDDIFV; listed as Homo sapiens) [compound 604]
72 | ″+++″ (≧50% = +++) | 531 (YTLPIASSIRL; listed as Homo sapiens) [compound 531]
73 | ″+++″ (≧50% = +++) | 486 (AVMESIQGV; listed as Homo sapiens) [compound 486]
74 | ″+++″ (≧50% = +++) | 245 (SMIDDLLGV; listed as Homo sapiens) [compound 245]
75 | ″+++″ (≧50% = +++) | 469 (YLASDEITTV; listed as Homo sapiens) [compound 469]
76 | ″++″ (≧20% = ++) | 409 (LLDAMNYHL; listed as Homo sapiens) [compound 409]
77 | ″++++″ (≧75% = ++++) | 337 (HLLSELEAAPYL; listed as Homo sapiens) [compound 337]
78 | ″+++″ (≧50% = +++) | 243 (LLLNELPSV; listed as Homo sapiens) [compound 243]
